B1: recombinant mature Sap5 (secreted aspartyl protease 5) from Candida albicans, expressed in Pichia pastoris (protein)
chain: GPVAVTLHNEAITYTADITVGSDNQKLNVIVDTGSSDLWIPDSNVICIPKWRGDKGDFCKSAGSYSPASSRTSQNLNTRFDIKYGDGSYAKGKLYKDTVGIGGVSVRDQLFANVWSTSARKGILGIGFQSGEATEFDYDNLPISLRNQGIIGKAAYSLYLNSAEASTGQIIFGGIDKAKYSGSLVDLPITSEKKLTVGLRSVNVRGRNVDANTNVLLDSGTTISYFTRSIVRNILYAIGAQMKFDSAGNKVYVADCKTSGTIDFQFGNNLKISVPVSEFLFQTYYTSGKPFPKCEVRIRESEDNILGDNFLRSAYVVYNLDDKKISMAPVKYTSESDIVAIN
B2: recombinant mature Sap6 (secreted aspartyl protease 6) from Candida albicans, expressed in Pichia pastoris (protein)
chain: GPVAVKLDNEIITYSADITVGSNNQKLSVIVDTGSSDLWIPDSKAICIPKWRGDCGDFCKNNGSYSPAASSTSKNLNTRFEIKYADGSYAKGNLYQDTVGIGGASVKNQLFANVWSTSAHKGILGIGFQTNEATRTPYDNLPISLKKQGIIAKNAYSLFLNSPEASSGQIIFGGIDKAKYSGSLVELPITSDRTLSVGLRSVNVMGRNVNVNAGVLLDSGTTISYFTPSIARSIIYALGGQVHFDSAGNKAYVADCKTSGTVDFQFDKNLKISVPASEFLYQLYYTNGKPYPKCEIRVRESEDNILGDNFMRSAYIVYDLDDKKISMAQVKYTSESNIVAIN

Target: T1, MSP-MS library tetradecapeptide KWLIHPTFSYnRWP
T1 chain: KWLIHPTFSYNRWP

Protein | kcat/Km (mass spectrometry-based cleavage time course)
B1 | 4.4×10^4 M^-1 s^-1 (Sap5)
B2 | 2.0×10^5 M^-1 s^-1 (Sap6)
